Measurements as given in patent publication US10167314 (NORTHWESTERN UNIVERSITY, dated 2019).
Ends that are not written are not given here.

Target: N-methyl-D-aspartate (NMDA) receptor (rat)
Assay: cell-based or functional assay

intrinsic activity relative to D-serine, pharmacologically isolated NMDA receptor current in the hippocampal slice assay: 23%
B1: GLYX-13 (L-threonyl-L-prolyl-L-prolyl-L-threonine amide) (peptide)
peptide: TPPT-NH2
